Here are results for one molecule from patent US20230030529A1.

The target in the test is C4-aa^1355 monoclonal antibody. The experiment in a line: competitive C4-aa^1355 ECLIA, peptide in solution against the biotinylated coating peptide.
C4-aa^1355 monoclonal antibody, sequence (VH, as listed by the source, chain 1 of 2): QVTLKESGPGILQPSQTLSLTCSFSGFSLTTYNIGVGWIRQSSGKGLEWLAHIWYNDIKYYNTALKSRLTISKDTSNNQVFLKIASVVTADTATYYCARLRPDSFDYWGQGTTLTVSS
C4-aa^1355 monoclonal antibody, sequence (VL, as listed by the source, chain 2 of 2): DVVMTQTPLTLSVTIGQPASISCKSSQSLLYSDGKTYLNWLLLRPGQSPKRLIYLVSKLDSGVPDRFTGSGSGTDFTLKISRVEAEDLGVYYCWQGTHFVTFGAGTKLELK

MGNSGPTGAV [Deselection peptide 2 …]: the signal left at the highest peptide concentration (% B/B0) stood at 65%.
